The values that follow are results of earlier work, collected in PMC9346034.

For one data set, the target named is Hsp70 (Homo sapiens) (UniProt P0DMV8).
A further data set concerns the target DnaK (Escherichia coli) (UniProt P0A6Y8).

Sequence of Hsp70 (Homo sapiens) (P0DMV8 2-641): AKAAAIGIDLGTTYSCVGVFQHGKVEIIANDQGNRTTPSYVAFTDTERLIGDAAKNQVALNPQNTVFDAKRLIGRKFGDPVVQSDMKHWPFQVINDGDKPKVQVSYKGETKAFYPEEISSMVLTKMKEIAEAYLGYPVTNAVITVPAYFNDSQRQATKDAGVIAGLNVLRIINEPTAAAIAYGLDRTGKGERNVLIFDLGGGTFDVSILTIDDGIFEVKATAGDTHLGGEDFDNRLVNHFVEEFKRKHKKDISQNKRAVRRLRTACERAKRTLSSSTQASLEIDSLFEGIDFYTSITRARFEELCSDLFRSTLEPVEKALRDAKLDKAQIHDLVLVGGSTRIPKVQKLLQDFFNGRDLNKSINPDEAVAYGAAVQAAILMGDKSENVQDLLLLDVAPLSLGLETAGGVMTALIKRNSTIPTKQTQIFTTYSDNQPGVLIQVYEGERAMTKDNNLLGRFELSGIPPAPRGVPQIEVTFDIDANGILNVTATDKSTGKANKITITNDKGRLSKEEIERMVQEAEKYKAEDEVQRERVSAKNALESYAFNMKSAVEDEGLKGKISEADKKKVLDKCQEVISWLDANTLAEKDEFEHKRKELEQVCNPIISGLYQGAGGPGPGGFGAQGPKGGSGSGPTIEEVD
Sequence of DnaJ (P08622 2-376): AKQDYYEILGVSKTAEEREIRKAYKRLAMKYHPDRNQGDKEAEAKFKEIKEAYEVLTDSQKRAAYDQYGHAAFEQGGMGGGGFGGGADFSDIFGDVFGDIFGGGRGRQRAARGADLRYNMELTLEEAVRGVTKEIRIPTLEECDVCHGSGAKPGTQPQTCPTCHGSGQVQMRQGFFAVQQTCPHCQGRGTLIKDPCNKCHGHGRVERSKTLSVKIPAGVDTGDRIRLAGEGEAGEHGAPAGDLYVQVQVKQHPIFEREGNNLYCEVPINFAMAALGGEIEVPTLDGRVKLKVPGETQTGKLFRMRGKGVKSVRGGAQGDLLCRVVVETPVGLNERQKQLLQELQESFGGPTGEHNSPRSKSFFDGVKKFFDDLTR
Sequence of DnaK (Escherichia coli) (P0A6Y8 2-638): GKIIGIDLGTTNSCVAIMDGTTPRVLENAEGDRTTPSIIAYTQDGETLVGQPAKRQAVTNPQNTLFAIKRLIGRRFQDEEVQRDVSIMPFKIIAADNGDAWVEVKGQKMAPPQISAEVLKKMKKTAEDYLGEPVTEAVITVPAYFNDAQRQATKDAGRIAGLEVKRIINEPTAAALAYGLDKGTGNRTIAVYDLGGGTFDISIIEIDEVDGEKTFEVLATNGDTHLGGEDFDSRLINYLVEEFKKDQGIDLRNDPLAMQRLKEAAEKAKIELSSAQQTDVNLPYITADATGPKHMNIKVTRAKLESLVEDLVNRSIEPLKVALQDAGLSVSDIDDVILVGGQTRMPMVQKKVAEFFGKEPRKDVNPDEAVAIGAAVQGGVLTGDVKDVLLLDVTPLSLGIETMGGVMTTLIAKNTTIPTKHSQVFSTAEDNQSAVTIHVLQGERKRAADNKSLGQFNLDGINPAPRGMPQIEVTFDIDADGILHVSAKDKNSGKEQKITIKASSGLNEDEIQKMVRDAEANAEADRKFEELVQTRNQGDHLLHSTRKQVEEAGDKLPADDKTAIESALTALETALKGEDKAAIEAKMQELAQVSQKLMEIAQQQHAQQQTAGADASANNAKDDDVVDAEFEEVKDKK
Sequence of Bag3-ΔBag ΔBag (O95817 2-420, stated change not applied): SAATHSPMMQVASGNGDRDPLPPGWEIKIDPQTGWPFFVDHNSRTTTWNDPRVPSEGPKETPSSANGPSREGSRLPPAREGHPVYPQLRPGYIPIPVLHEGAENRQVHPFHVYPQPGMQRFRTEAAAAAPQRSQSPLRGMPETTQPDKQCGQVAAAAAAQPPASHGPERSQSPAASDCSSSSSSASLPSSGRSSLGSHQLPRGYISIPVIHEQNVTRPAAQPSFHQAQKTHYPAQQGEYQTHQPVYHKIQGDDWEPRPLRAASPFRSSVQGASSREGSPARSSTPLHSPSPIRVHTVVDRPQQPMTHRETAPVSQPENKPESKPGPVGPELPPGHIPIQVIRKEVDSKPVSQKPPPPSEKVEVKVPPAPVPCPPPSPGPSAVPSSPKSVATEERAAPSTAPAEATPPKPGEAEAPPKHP
Sequence of Bag3-ΔBag ΔBag (O95817 499-575, stated change not applied): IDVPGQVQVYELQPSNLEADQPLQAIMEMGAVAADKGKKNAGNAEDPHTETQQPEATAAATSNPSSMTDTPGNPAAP

Consider Bag3-ΔBag ΔBag (from UniProt O95817), for which, in the data set with Hsp70 (Homo sapiens), the Kd is 10 µM.
For DnaJ (from UniProt P08622), the Kd with DnaK (Escherichia coli) is 3.6 µM.
